The results in this text go back to patent publication US11029303B2, “PAH antibodies and uses thereof” (The Administrators of the Tulane Educational Fund, priority 2015, dated 2021).

“Also recorded” adds a separate entry of the source.

Format in all cases: binding
Assay [1] in a line: Cross-reactivity competitive ELISA, ligand fluoranthene. The settings on record: ligand 200 μM to 0.091 μM; read-out: affinity (IC50). On the procedure:
(§1) Competitive ELISA was performed similar as described in Example 3, except that an anti-myc antibody (9E10) was added before applying goat-antimouse-HPR secondary antibody to detect myc-tag on scFv construct.
(§2) A real-world field sample is a complex mixture and contains a variety of PAH compounds. An understanding of the abilities of antibody to recognize various PAHs can greatly facilitate the development and application of these antibodies into field studies. In the final assessment, the inventors determined the cross-reactivity of these three scFv clones among 16 structurally related EPA priority PAH species via competitive ELISAs. First, the inventors inhibited the binding of scFv to the immobilized Phen-BSA by high concentrations (50 μM) of PAHs to determine if the scFv can recognize the ligand.
(In general: An ELISA detects its analyte on a solid surface through an enzyme-linked reagent.)

The nature of assay [2]: Competitive ELISA with D7 in artificial seawater (ONR7a) and crude oil. On the procedure:
FIG. 74 is (A) a graph showing a comparison of competitive ELISA for phenanthrene, an abundant PAH in crude oil, in phosphate-buffered saline (ionic strength of serum) and ONR7a, an artificial environmental matrix that mimics seawater. The limit of detection of phenanthrene in this matrix is ˜1 μM. Compared with two buffer PBS and ONR7A (article seawater), the IC50s of two curves were no different than 2 fold.
FIG. 77 is a bar graph showing that the D7 antibody can detect the model PAH, phenanthrene in a background of crude oil (4 and 0.8 mL/L). At both concentrations of crude oil, the presence of 500 μM phenanthrene decreased the absorbance in the immunoassay by 30% (*, p<0.05).
The D7 antibody can detect phenanthrene in the presence of crude oil at concentrations similar to those found in oil spills (0.8-4 mL per liter of seawater). At both concentrations tested (0.8 and 4 mL crude oil/L of synthetic seawater), the D7 antibody was able to detect phenanthrene, as shown by the 30% decrease in absorbance in the competitive ELISA. This will form the basis for an ELISA to determine the measurement and degradation of PAHs in crude oil. (see FIG. 77).

The nature of assay [3]: Cross-reactivity competitive ELISA, ligand indeno-[1,2,3-cd]-pyrene. As for the experimental part: as §1, §2
Assay [4] can be described thus: Cross-reactivity of scFv clones against EPA 16 PAHs (competitive ELISA). Particulars: for cross-reactivity / inhibition by the 16 EPA PAHs: 50 μM PAH, less than 20% decrease = non-reactive. On the procedure: as §1, §2
A short description of assay [5]: Cross-reactivity competitive ELISA, ligand pyrene. Particulars: ligand 200 μM to 0.091 μM; read-out: affinity (IC50). On the procedure: as §1, §2
A short description of assay [6]: Competitive flow cytometry of monoclonal yeast cells. Particulars: soluble Phen versus 2-MePhen. On the procedure:
For flow cytometry, the yeast library was incubated in growth medium SD-CAA at 30° C. overnight for activation. The next day, activated yeast cells were diluted in induction medium SG/R-CAA at OD600=0.5, and cultured again at 30° C. for 16 hrs. After induction, 10^7 induced yeast cells (OD600=0.5) were washed twice with 0.5 ml wash buffer I (0.5% BSA supplemented with 2 mM EDTA), and once with 0.5 ml wash buffer II (0.5% BSA). Yeast cells were first incubated with 50 μl competitor (phenanthrene or 2-methylphenanthrene, 200 μM in PBS containing 1% DMSO) for 30 min with rotation at 25° C. An additional aliquot (50 μl) of biotinylated protein-conjugate (BSA-biotin, phen-BSA-biotin, or 2mp-BSA-biotin at concentrations between 1 and 100 nM) containing 2 μg/ml anti-myc antibody 9E10 was then added and the cells were incubated for another 30 min. Yeast cells were washed 3 times with wash buffer II and stained with 4 μg/ml goat-antimouse-PE (Life Technologies, Grand Island, N.Y.) and 10 μg/ml streptavidin-Alexa633 (Life Technologies, Grand Island, N.Y.) in the dark room at 4° C. for an hour. The stained yeast cells were washed three times with wash buffer II and resuspended in 1 ml PBS for flow-cytometry analysis. The selected yeast population was sorted into 2 ml pre-warmed YPD medium, and incubated at 30° C. without shaking for 30 min before transferring into 30° C. shaker for two days. The sorted pool was analyzed again by flow cytometry using the same staining procedure. […]
Yeast cells collected after 2nd sort were spread onto agar plates at various dilution level to obtain isolated single colonies. […] A total of 184 individual clones sorted from Pool 1 were picked and analyzed for their binding to Phen-BSA-Biotin in the presence of soluble Phen or 2-MePhen.
(In general: In flow cytometry, cells or beads pass a laser one at a time.)

Assay [7] is described as follows: Competitive ELISA with purified scFv, ligand 2-MP. Particulars: Phen-BSA coated plate; 5% DMSO; read-out: affinity (IC50). On the procedure:
(§3) Competitive ELISA was performed in 96 well high binding plates (Corning, Corning, N.Y.). Each well was coated with 2 μg/ml antigen at 4° C. overnight and blocked with 3% BSA. Antibody scFv was incubated in the antigen-coated well with or without soluble competitor, and the binding of scFv was accessed using anti-myc antibody (9E10) and goat-antimouse-HPR antibody (Sigma Aldrich, MO). The HRP signal was detected by adding Sureblue TMB microwell peroxidase substrate (KPL, Gaithersburg, Md.) and the reaction was stopped after 5 minutes using 1 M HCl. The incubation steps were performed at room temperature for an hour. […]
(§4) Competitive ELISA or indirect ELISA was performed in 96-well high binding plates (Corning, Corning, N.Y.). […] The HRP signal was detected by adding Sureblue TMB microwell peroxidase substrate (KPL, Gaithersburg, Md.) and the reaction was stopped after 5 min using 1N HCl. The quantified signals were measured by reading […] values from microplate photometer. […]
(§5) Since A10, D7 and G8 represent three distinct family based on the sequence alignment, the inventors next explored the binding characteristics of these three clones as models to of the antibodies present in the immune library. Purified scFv were prepared and analyzed by competitive ELISA for their abilities to recognize unsubstituted phenanthrene or methylated phenanthrenes, as shown in FIG. 55. […]

Assay [8] can be described thus: Competitive ELISA with purified scFv, ligand 9-MP. The settings on record: Phen-BSA coated plate; 5% DMSO. On the procedure: as §3, §4, §5
Assay [9] can be described thus: Competitive ELISA with purified scFv, ligand phenanthrene. Particulars: Phen-BSA coated plate; 5% DMSO. On the procedure:
as §3, §4, §5

Assay [10] in a line: Competitive ELISA with purified scFv, ligand 4-MP. Particulars: Phen-BSA coated plate. As for the experimental part:
as §3, §4, §5

Assay [11] is described as follows: Competitive ELISA with purified scFv, ligand 3-MP. The settings on record: Phen-BSA coated plate; 5% DMSO. As for the experimental part:
as §3, §4, §5

B1: Clone D7: scFv, amino acid sequence SEQ ID NO: 42; binds unmethylated and methylated phenanthrenes alike (protein)
scFv: SAHAEAYLQQSGAELVRPGTSVKVSCKASGYAFTKYLIEWVKQRPGQGLEWIGVINPGSGSTSYNEKFRYKAILTADTSSSTAYMQLSSLTSDDSAVYFCATIPASYRSDSLDCWGQGTTVTVSSGGGGSGGGGSGGGARGGGGSDTTVTQSHKFMSTSVGDRVSITCKASQDVGTAVAWYQQKPGQSPKLLIYWASTRHTGVPDRFTGSGSGTDFTLTISNVQSEDLADYFCQQYSSYPWTFGGGTKLEMKRAS
For the molecule B1, the half-inhibitory concentration (IC50) (in general, the concentration at which inhibition is half-maximal) in assay [1] came out at 1500 nM; in assay [3] (ligand 200 μM to 0.091 μM, read-out: affinity (IC50)) it was 1500 nM; in assay [5], 1500 nM. In assay [2] (500 μM phenanthrene, crude oil 4 and 0.8 mL/L), the “decrease in absorbance in the immunoassay” value is 30%. In addition, the “activity in artificial seawater matrix (ONR7a)” value in assay [2] (ONR7a) was “active”. For the same molecule, the “sensitivity for fluoranthene, indeno-[1,2,3-cd]-pyrene and pyrene relative to phenanthrenes” value in assay [4] was “about 4 fold”. In assay [6], the “inhibition of binding to Phen-BSA-Biotin by soluble competitors” value (“inhibition of binding to Phen-BSA-Biotin” below) is “unable to distinguish between the 2 soluble competitors”.

B2: Clone A10: scFv, amino acid sequence SEQ ID NO: 37; binds methylated phenanthrenes, prefers 2-methylphenanthrene (protein)
scFv: SAHAEAYLQQSGAELVKPGASVKLSCKASGYTFTSYWMHWVKQRPGQGLEWIGEINPRNGRSNYNEKFKNKATVTVDKYSNTAYMQLSSLTSDDSAVYYCTRDGGDYWGQGTTVTVSSGGGGSGGGGSGGGARGGGGSDIVLTQSHKFMSTSVGDRVSITCKASQDVGTAVAWYQQKPGQSPKLLIYWASTRHTGVPDRFTGSGSGTDFTLTISNVQSEDLADYFCQQYSSYPLTFGGGTKLEMKRAS
Regarding B2, the IC50 in [7] worked out at 8280 nM. In assay [8], the “recognition of 9-MP” value is “did not recognized”. Further, in assay [9], the “recognition of parent phenanthrene” value was “did not recognized”. For the same molecule, the “cross-reactivity / inhibition by the 16 EPA PAHs” value in assay [4] (listed as A10) was “None of the 16 PAHs showed significant inhibition; also recorded: no cross-reactivity to other PAHs”. Moreover, the “inhibition of binding to Phen-BSA-Biotin” value in [6] is listed as “some tendency for the 2-MePhen over unsubstituted Phen”.

B3: Clone G8: scFv, amino acid sequence SEQ ID NO: 45; binds 4-methylphenanthrene most tightly (protein)
scFv: SAHAEAYLQQSGAELVRPGTSVKVSCKASGYVFTNFLIEWVKQRPGQGLEWIGVINPGNGGAAYNEKFKGKAILTADKSSSTAYMQLSSLTSDDSAVYFCARLPPSYDYDGDIDYWGQGTTVTVSSGGGGSGGGGSGGGARGGGGSDLVLTQSPASLAVALGQRATISCRASKSVTTSGYSLMHWYRQKPGQPPKLLIYPASNLESGVPARFSGSGSGTDFTLNIHPVEEEDAATYYCQHSRELPWTFGGGTKLEIKRAS
Take B3: the “recognition of indeno-[1,2,3-cd]-pyrene” value in assay [3] is given as “did not recognize”. Besides, in [4], the “cross-reactivity / inhibition by the 16 EPA PAHs” value is “some cross-reactivity to other PAHs”. Besides, the IC50 is 940 nM in assay [10] and 14400 nM in [11]. In addition, in assay [10] (5% DMSO), the affinity result is recorded as “sub-micromolar”. Also, in assay [6], the “inhibition of binding to Phen-BSA-Biotin” value is given as “unable to distinguish between the 2 soluble competitors”.
